Measurements as given in patent US20180117147A1.

What was measured:
[1] = target: human KIR2DL3 expressed on NK and T lymphocytes of KIR2DL3 transgenic C57Bl/6 mice (human) (UniProt P43628); test: in vivo receptor occupancy in KIRtgB6 mice, 10 mg/kg iv, for 8 days
[2] = target: human KIR2DL3 expressed on NK and T lymphocytes of KIR2DL3 transgenic C57Bl/6 mice (human) (UniProt P43628); test: in vivo receptor occupancy in whole blood of KIRtgB6 mice, 20 mg/kg iv, for 14 days

UniProt P43628, sequence (P43628 22-341): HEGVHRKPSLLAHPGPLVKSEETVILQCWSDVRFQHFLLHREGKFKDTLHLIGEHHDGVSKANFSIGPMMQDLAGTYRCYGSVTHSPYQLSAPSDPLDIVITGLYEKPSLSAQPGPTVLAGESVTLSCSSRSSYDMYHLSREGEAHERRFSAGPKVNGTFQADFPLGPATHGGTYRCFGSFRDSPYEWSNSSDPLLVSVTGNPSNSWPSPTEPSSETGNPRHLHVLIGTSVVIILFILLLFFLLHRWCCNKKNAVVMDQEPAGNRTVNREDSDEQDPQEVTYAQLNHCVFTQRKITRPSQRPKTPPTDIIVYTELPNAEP

KIR receptor occupancy [1]: > 90%
KIR receptor occupancy [2]: > 90%
Substance: Anti-KIR antibody clone GL183
